Consider one molecule from PMC7699647, “Nucleocapsid protein of SARS-CoV-2 phase separates into RNA-rich polymerase-containing condensates”.

In the data set the target is nsp12;nsp7;nsp8 (SARS-CoV-2;SARS-CoV-2;SARS-CoV-2, UniProt P0DTD1;P0DTD1;P0DTD1 4393-5324;3860-3942;3943-4140, ||). Nature of the data set: size exclusion chromatography; 20 mM Na-HEPES pH 7.4, 100 mM NaCl, 1 mM MgCl2, 1 mM TCEP; NMR: 50 mM NaP, 0.01% NaN3, 5% D2O, 5 C; phase separation: 20 mM NaPi pH 7.5. The following applies: protein: recombinant;recombinant;recombinant; tags: 6xHis-MBP removed by TEV;His tag removed by TEV;His tag removed by TEV; copies: 1;1;2; label: 5' 6-FAM on strand 2; 5' overhang 11 nt on strand 1; other end blunt. A general note: In gel filtration, larger molecules generally elute earlier.

B1: RdRp RNA scaffold (minimal RNA hairpin) (dsRNA)
RNA 1: UUUUCAUGCAUCGCGUAGGCUCAUACCGUAUUGAGA
RNA 2: UCUCAAUACGGUAUGAGCCUACGCG
With B1, the binding result was “binds”.
